These results are taken from PMC7647061, “Expression, purification and characterization of α-synuclein fibrillar specific scFv from inclusion bodies” (PLoS ONE, 2020).

In this experiment the target is full-length α-syn140 fibrils (Homo sapiens (assumed), UniProt P37840). Put plainly: far-Western, overlay or dot blot; dot blot: antigen (monomeric or fibrillar) spotted on nitrocellulose in 5 μl, air-dried, blocked in 5% skimmed milk in PBST; scFv-F 5 μg/mL overnight at 4°C; detected by anti-His and HRP secondary antibody. The note with it: both partners purified.

B1: single-chain variable fragment (scFv-F) antibody (scFv, V domains shown)
VH: DVQLVESGGGLVQPGGSRKLSCAASGFTFSSFGMHWVRQAPEKGLEWVAYISSGSSTIYYADTVKGRFTISRDNPKNTLFLQMTSLRSEDTAMYYCARGNNPGTGYYYAMDYWGQGTSVTVSS
VL: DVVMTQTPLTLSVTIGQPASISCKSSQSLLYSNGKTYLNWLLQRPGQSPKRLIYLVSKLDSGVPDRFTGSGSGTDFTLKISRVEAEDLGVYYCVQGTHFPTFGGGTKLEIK
notes: VL of mouse monoclonal antibody Syn-F2; (Gly4Ser)3 linker, written out from the printed formula; VH of mouse monoclonal antibody Syn-F2; Order VL-(Gly4Ser)3-VH-6xHis; Final construct is in pET28a; the vector may add residues at the N-terminus (the model's residue numbers Tyr215 and Thr269 hint at a chain longer than VL-linker-VH alone); not shown: His6, C-terminal, kept
As to B1, the binding result is given as “binds”.
